Test results reported in PMC9454698.

Target: stanniocalcin 2 (STC2), recombinant (mouse) (UniProt O88452)
Test: quartz crystal microbalance (QCM); STC2 (50 µg/mL) immobilised by amine coupling on LNB chip, Attana Cell 200; HRG injected at 50, 100 and 200 nM; PBS running buffer, 10 µL/min, 22 °C, 500 s dissociation; 1:1 global interaction model

Sequence of UniProt O88452 (O88452 25-296): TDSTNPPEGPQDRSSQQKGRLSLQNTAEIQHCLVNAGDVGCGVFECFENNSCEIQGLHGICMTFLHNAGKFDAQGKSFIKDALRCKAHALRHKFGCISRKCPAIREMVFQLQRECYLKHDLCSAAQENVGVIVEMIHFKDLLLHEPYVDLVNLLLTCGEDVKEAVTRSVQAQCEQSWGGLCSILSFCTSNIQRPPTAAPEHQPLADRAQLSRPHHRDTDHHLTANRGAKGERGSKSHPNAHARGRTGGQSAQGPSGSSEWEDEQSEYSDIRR

Work on “histidine-rich glycoprotein (HRG), recombinant, active (from UniProt Q9ESB3 19-525) (natural protein)” yielded a Kd of 55 nM, a koff of 0.0014 s⁻¹ and a kon of 26000 M⁻¹ s⁻¹.
